The target in the assay is PTH receptor 1 on ROS 17/2.8 rat osteoblast cells (rat) (UniProt P25961). As to the kind of experiment: cell-based or functional assay.
Sequence of UniProt P25961 (P25961 27-591): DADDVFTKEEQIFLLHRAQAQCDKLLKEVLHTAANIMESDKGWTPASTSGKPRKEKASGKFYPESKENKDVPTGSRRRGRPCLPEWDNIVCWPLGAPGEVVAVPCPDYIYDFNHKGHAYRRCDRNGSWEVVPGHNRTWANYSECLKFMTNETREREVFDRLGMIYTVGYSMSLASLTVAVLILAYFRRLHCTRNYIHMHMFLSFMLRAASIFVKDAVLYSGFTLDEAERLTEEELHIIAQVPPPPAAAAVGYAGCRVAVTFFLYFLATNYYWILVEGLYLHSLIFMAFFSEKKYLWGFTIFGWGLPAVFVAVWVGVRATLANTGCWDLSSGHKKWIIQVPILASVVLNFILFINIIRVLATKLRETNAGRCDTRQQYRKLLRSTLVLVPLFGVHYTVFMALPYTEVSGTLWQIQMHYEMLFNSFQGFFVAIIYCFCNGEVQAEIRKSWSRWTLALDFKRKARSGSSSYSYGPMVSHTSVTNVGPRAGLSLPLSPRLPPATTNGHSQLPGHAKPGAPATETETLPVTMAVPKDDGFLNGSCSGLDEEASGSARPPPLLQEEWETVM

Turning to “human PTH (1-34) (from UniProt P01270 32-65) (peptide)”, the PAIGB expression (fold induction) is 6 fold.

(Values after US20040146906A1.)
